From US20180072816A1 (ADALTA, published 2018)
Positions count from the first letter of the chain named. Values joined by “and” are separate entries in the source; they are usually repeats but may differ in a detail not shown here. Equal values may be shown once.

Assays:
human CXCR4 [1] = target: T1, human CXCR4 (human, UniProt P61073 1-352); assay: phage display selection on hCXCR4 lipoparticles or CXCR4 positive cells
T1 construct: also called hCXCR4; Fusin

human CXCR4 [2] = target: T1, human CXCR4; assay: flow cytometry on Ramos cells, anti-His-PE; i-body alone or with an excess of SDF-1, MAb 12G5 or AMD3100 [top panel]
human CXCR4 [3] = target: T1, human CXCR4; assay: flow cytometry on Ramos cells, anti-His-PE; i-body alone or with an excess of SDF-1, MAb 12G5 or AMD3100 [middle panel]
human CXCR4 [4] = target: T1, human CXCR4; assay: SPR (Biacore), CXCR4 expressed on lipoparticles
human CXCR4 [5] = target: T1, human CXCR4; assay: cell-based or functional assay
human CXCR4 [6] = target: T1, human CXCR4; assay: cell-based or functional assay; remark: listed apart in the source
human CXCR4 [7] = target: T1, human CXCR4; assay: off-rate, CXCR4 expressed on lipoparticles
human CXCR4 [8] = target: T1, human CXCR4; assay: SPR (Biacore), immobilised CXCR4 lipoparticles
human CXCR4 [9] = target: T1, human CXCR4; assay: not told (affinity for CXCR4); parent i-body before affinity maturation
human CXCR4 [10] = target: T1, human CXCR4; assay: SPR (Biacore), immobilised CXCR4 lipoparticles; remark: listed apart in the source
human CXCR4 [11] = target: T1, human CXCR4; assay: SPR
CCR5 (on lipoparticles) = target: T2, CCR5 (on lipoparticles) (UniProt P51681 1-352, limits assumed); assay: ELISA, single point, periplasmic fraction on CCR5 positive lipoparticles, 450 nm absorbance
T2 construct: whole, on cells; Whole receptor in lipoparticles; also called CCR5 positive lipoparticles; GPCR CCR5
T2 sequence (P51681 whole entry): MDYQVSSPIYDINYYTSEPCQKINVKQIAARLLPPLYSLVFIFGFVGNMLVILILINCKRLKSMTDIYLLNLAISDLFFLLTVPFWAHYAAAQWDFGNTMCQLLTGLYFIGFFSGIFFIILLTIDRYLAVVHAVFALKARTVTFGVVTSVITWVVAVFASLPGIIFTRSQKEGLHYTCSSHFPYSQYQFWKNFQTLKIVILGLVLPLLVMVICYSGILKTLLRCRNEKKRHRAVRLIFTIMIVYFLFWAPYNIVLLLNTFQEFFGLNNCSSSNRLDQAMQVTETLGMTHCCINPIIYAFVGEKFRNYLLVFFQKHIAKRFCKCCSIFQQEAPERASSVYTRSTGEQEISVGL

human CXCR4 [12] = target: T1, human CXCR4; assay: SPR (Biacore), biotinylated CXCR4 lipoparticles captured on streptavidin (bt. CXCR4), i-body injected
human CXCR4 [13] = target: T1, human CXCR4; assay: not told
human CXCR4 [14] = target: T1, human CXCR4; assay: cell-based or functional assay; remark: listed apart in the source
human CXCR4 [15] = target: T1, human CXCR4; assay: SPR (Biacore), biotinylated CXCR4 lipoparticles captured on streptavidin (bt. CXCR4), i-body injected; remark: listed apart in the source
human CXCR4 [16] = target: T1, human CXCR4; assay: SPR (Biacore), biotinylated CXCR4 lipoparticles (bt.CXCR4), three successive injections in one cycle
human serum albumin [17] = target: T3, human serum albumin (human, UniProt P02768 25-609); assay: SPR
T3 construct: also called HSA; HAS

human CXCR4 [18] = target: T1, human CXCR4; assay: SPR (Biacore)
human serum albumin [19] = target: T3, human serum albumin; assay: SPR (Biacore), binding to HSA by the SA21 peptide
human CXCR4 [20] = target: T1, human CXCR4; assay: SPR (Biacore), biotinylated CXCR4 lipoparticles captured on streptavidin (bt. CXCR4), i-body injected; remark: listed apart in the source

T1 sequence (P61073 whole entry): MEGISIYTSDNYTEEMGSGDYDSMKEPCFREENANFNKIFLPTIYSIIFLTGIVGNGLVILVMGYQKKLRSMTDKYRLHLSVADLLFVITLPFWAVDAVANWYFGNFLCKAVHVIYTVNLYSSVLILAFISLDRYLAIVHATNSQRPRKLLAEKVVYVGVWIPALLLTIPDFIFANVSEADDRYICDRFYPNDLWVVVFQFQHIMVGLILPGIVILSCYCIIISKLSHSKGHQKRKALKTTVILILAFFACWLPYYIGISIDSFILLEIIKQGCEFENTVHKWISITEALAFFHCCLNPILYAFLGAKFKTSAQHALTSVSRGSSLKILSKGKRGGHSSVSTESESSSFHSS

B1: ADCX-6 (designed binder)
chain: LQVDIVPSQGEISVGESKFFLCQVAGLTSLEGISWFSPNGEKLTPNQQRISVVWNDDSSSTLTIYNANIDDAGIYKCVVEDHPQYSKMEEATVNVKIFQ
notes: i-body (human NCAM1 domain 1 scaffold); also called ACDX-6
binding result (human CXCR4 [1]): binds

B2: AM3-114-6H (designed binder)
chain: EAEALQVDIVPYQGEISVGESKFFLCQVAGSLSGIRISWFSPNGEKLTPNQQRISVVWNDDSSSTLTIYNANIDDAGIYKCVVWRTGGYRHRYLVLGEATVNVKIFQ
notes: Construct with N-terminal EAEA and 6H tag, detected with anti-His-PE; not shown: 6H tag (six histidines by the label)
binding result (human CXCR4 [2]): binds

B3: AM4-272-6H (designed binder)
chain: B2 chain with Y12S, L32Y, G34D, I35Y, W84Y, T86I
notes: as for B2
binding result (human CXCR4 [3]): binds

B4: AM3-920 (designed binder)
chain: LQVDIVPSQGEISVGESKFFLCQVAGSGSGIRISWFSPNGEKLTPNQQRISVVWNDDSSSTLTIYNANIDDAGIYKCVVWRTGGYRHRYLVLGEATVNVKIFQ
Kd (human CXCR4 [4]): 7.18 nM and 5.87 nM
kon (human CXCR4 [4]): 1.12e+06 M⁻¹ s⁻¹ and 1.26e+06 M⁻¹ s⁻¹

B5: AM3-523 (designed binder)
chain: B4 chain with G30H, I31M, T82V, Y89A
Kd (human CXCR4 [4]): 8.53 nM and 9.47 nM
kon (human CXCR4 [4]): 1e+06 M⁻¹ s⁻¹ and 965000 M⁻¹ s⁻¹
cAMP inhibition IC50 (human CXCR4 [5]): 225 nM
IC50 (nM) in β-Arrestin BRET assay (Antagonist mode in the presence of 100 nM SDF-1) (human CXCR4 [6]): 12700 nM

B6: AM4-746 (designed binder)
chain: B4 chain with G28K, G30N, W80Y, V91K
Kd (human CXCR4 [4]): 5.36 nM
kon (human CXCR4 [4]): 2.5e+06 M⁻¹ s⁻¹
cAMP inhibition IC50 (human CXCR4 [5]): 115 nM
IC50 (nM) in β-Arrestin BRET assay (Antagonist mode in the presence of 100 nM SDF-1) (human CXCR4 [6]): 741 nM

B7: AM5-245 (designed binder)
chain: B4 chain with V24A, G30H, Y89A
Kd (human CXCR4 [4]): 14.9 nM and 15.9 nM
kon (human CXCR4 [4]): 813000 M⁻¹ s⁻¹ and 771000 M⁻¹ s⁻¹

B8: AM4-613 (designed binder)
chain: B4 chain with G28K, G30D, I31V
Kd (human CXCR4 [4]): 7.83 nM
kon (human CXCR4 [4]): 1.33e+06 M⁻¹ s⁻¹
IC50 (nM) in β-Arrestin BRET assay (Antagonist mode in the presence of 100 nM SDF-1) (human CXCR4 [6]): 1830 nM

B9: AM3-466 (designed binder)
chain: B4 chain with G30H, I31Q, G84A, Y89A
Kd (human CXCR4 [4]): 13.8 nM and 15.7 nM
kon (human CXCR4 [4]): 465000 M⁻¹ s⁻¹ and 426000 M⁻¹ s⁻¹
IC50 (nM) in β-Arrestin BRET assay (Antagonist mode in the presence of 100 nM SDF-1) (human CXCR4 [6]): 6320 nM

B10: AM4-1121 (designed binder)
chain: B4 chain with G28K, W80Y, V91R
Kd (human CXCR4 [4]): 7.21 nM and 6.7 nM
kon (human CXCR4 [4]): 1.29e+06 M⁻¹ s⁻¹ and 1.42e+06 M⁻¹ s⁻¹
koff (human CXCR4 [7]): 0.0115 s⁻¹
cAMP inhibition IC50 (human CXCR4 [5]): 125 nM
IC50 (nM) in β-Arrestin BRET assay (Antagonist mode in the presence of 100 nM SDF-1) (human CXCR4 [6]): 796 nM

B11: ADCX-99 (designed binder)
chain: B4 chain with G30D, W80Y, Y89A
notes: i-body (human NCAM1 domain 1 scaffold); also called wild-type i-body ADCX-99
Kd (human CXCR4 [8]): 700 nM
Kd (human CXCR4 [9]): > 700 nM
Kd (human CXCR4 [10]): ~600 nM and 623 nM
Kd (human CXCR4 [11]): 643 nM
binding result (CCR5 (on lipoparticles)): no binding

B12: AM4-661 (designed binder)
chain: B4 chain with G28K, G30D, I31F, W80Y
Kd (human CXCR4 [4]): 9.53 nM and 9.66 nM
kon (human CXCR4 [4]): 966000 M⁻¹ s⁻¹ and 983000 M⁻¹ s⁻¹
IC50 (nM) in β-Arrestin BRET assay (Antagonist mode in the presence of 100 nM SDF-1) (human CXCR4 [6]): 1540 nM

B13: ADCX-272 (designed binder)
chain: LQVDIVPSQGEISVGESKFFLCQVAGHLEVRSISWFSPNGEKLTPNQQRISVVWNDDSSSTLTIYNANIDDAGIYKCVVEQRGRSQSYFSEATVNVKIFQ
notes: i-body (human NCAM1 domain 1 scaffold)
Kd (human CXCR4 [8]): 1600 nM
Kd (human CXCR4 [12]): 1620 nM
binding result (CCR5 (on lipoparticles)): no binding

B14: 21H5 control i-body (designed binder)
chain: LQVDIVPSQGEISVGESKFFLCQVAGDAKDKDISWFSPNGEKLTPNQQRISVVWNDDSSSTLTIYNANIDDAGIYKCVVTGSDAMSNYSYPISESEATVNVKIFQ
notes: Control i-body used as isotype control; also called negative control i-body; isotype control i-body
binding result (human CXCR4 [13]): no binding
cAMP inhibition IC50 (human CXCR4 [5]): > 10000 nM
Calcium Inhibition EC50 (human CXCR4 [14]): > 10000 nM

B15: ADCX-54 (designed binder)
chain: LQVDIVPSQGEISVGESKFFLCQVAGRTIIVEISWFSPNGEKLTPNQQRISVVWNDDSSSTLTIYNANIDDAGIYKCVVVLSIRGKWELEATVNVKIFQ
notes: as for B13
binding result (human CXCR4 [1]): binds

B16: ADCX-668 (designed binder)
chain: LQVDIVPSQGEISVGESKFFLCQVAGTIWYEQISWFTPNGEKLTPNQQRISVVWNDDSSSTLTIYNANIDDAGIYKCVVWTRPVTSSMHEATVNVKIFQ
notes: as for B13
Kd (human CXCR4 [8]): 42000 nM
Kd (human CXCR4 [15]): 42300 nM

B17: AM3-114-Im7-FH-SA21 dual specificity i-body (designed binder)
chain: MALQVDIVPSQGEISVGESKFFLCQVAGSLSGIRISWFSPNGEKLTPNQQRISVVWNDDSSSTLTIYNANIDDAGIYKCVVWRTGGYRHRYLVLGEATVNVKIFQGGGGSELKNSISDYTEAEFVQLLKEIEKENVAATDDVLDVLLEHFVKITEHPDGTDLIYYPSDNRDDSPEGIVKEIKEWRAANGKPGFKQGGGGGSDYKDDDDKGSGHHHHHHHHGGGGSRLIEDICLPRWGCLWEDD
Kd (human CXCR4 [16]): 9.2 nM
koff (human CXCR4 [16]): 0.002 s⁻¹
kon (human CXCR4 [16]): 210000 M⁻¹ s⁻¹
Kd (human serum albumin [17]): ~500 nM
Kd (human CXCR4 [11]): 5 to 10 nM
Kd (human CXCR4 [18]): 9 nM
Kd (human serum albumin [19]): 518 nM

B18: ADCX-306 (designed binder)
chain: LQVDIVPSQGEISVGESKFFLCQVAGFQEWVNWFSPNGEKLTPNQQRISVVWNDDSSSTLTIYNANIDDAGIYKCVVTMPHTLNNLDVRTEATVNVKIFQ
notes: as for B13
Kd (human CXCR4 [8]): 22000 nM
Kd (human CXCR4 [20]): 22500 nM
Kd (human CXCR4 [10]): 22500 nM
